According to patent publication US20120058906A1 (published 2012):

Columns and labels:
[1] = molecular target: T1, rHuman HGF R/c-MET/Fc Chimera, CF (R&D Systems Cat#358-MT/CF) (human, UniProt P08581 25-932); experiment: ECL (MSD Multi-Spot) binding, antigen spotted on plate; Fab 1000 nM
T1 construct: Bought Fc chimera; also called HGF R/Fc; hepatocyte growth factor receptor; Fc part of the bought chimera not given

[2] = molecular target: T2, rHuman P-Cadherin/Fc Chimera, CF (R&D Systems Cat#861-PC) (human, UniProt P22223 108-654); experiment: as above
T2 construct: Bought Fc chimera; Fc part of the bought chimera not given

[3] = molecular target: T3, rHuman CD44/Fc Chimera, CF (R&D Systems Cat#3660-CD) (human, UniProt P16070 21-220); experiment: as above
T3 construct: Bought Fc chimera; Fc part of the bought chimera not given

[4] = molecular target: T4, Recombinant Human DLL4 (R&D Systems Cat#1506-D4/CF) (human, UniProt Q9NR61 27-524); experiment: as above
T4 construct: Bought recombinant protein; also called delta-like protein 4

[5] = molecular target: T5, rHuman Erythropoietin R/Fc Chimera, CF (R&D Systems Cat#963-ER) (human, UniProt P19235 25-250); experiment: as above
T5 construct: Bought Fc chimera; also called EPO R/Fc; erythropoietin receptor; Fc part of the bought chimera not given
T5 sequence: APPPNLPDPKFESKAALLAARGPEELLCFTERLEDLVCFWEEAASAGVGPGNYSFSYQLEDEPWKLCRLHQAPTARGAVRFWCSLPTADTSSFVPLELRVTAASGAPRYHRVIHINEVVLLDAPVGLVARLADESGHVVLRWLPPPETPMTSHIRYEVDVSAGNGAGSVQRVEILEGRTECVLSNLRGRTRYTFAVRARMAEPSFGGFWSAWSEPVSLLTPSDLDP

[6] = molecular target: T6, rHuman Notch-1/Fc Chimera, CF (R&D Systems Cat#3647-TK) (human, UniProt P46531 19-526); experiment: as above
T6 construct: Bought Fc chimera; Fc part of the bought chimera not given

[7] = molecular target: T7, rHuman IGF-1 sR, CF (R&D Systems Cat#391-GR) (human, UniProt P08069 31-932); experiment: as above
T7 construct: Bought soluble receptor; also called insulin-like growth factor-1 soluble receptor; IGF-R1

[8] = molecular target: T8, rHuman ErbB2/Fc Chimera, CF (R&D Systems Cat#1129-ER) (human, UniProt P04626 23-652); experiment: as above
T8 construct: Bought Fc chimera; also called human epidermal growth factor 2 receptor; HER2/neu; Fc part of the bought chimera not given

[9] = molecular target: T9, rHuman EGF R/Fc Chimera, CF (R&D Systems Cat#344-ER) (human, UniProt P00533 25-645); experiment: as above
T9 construct: Bought Fc chimera; also called epidermal growth factor receptor; Fc part of the bought chimera not given

[10] = molecular target: T1, rHuman HGF R/c-MET/Fc Chimera, CF (R&D …); experiment: ECL (MSD Multi-Spot) binding, antigen spotted on plate; Fab 10 nM
[11] = molecular target: T2, rHuman P-Cadherin/Fc Chimera, CF (R&D …); experiment: as above
[12] = molecular target: T3, rHuman CD44/Fc Chimera, CF (R&D Systems …); experiment: as above
[13] = molecular target: T4, Recombinant Human DLL4 (R&D Systems …); experiment: as above
[14] = molecular target: T5, rHuman Erythropoietin R/Fc Chimera, CF …; experiment: as above
[15] = molecular target: T6, rHuman Notch-1/Fc Chimera, CF (R&D …); experiment: as above
[16] = molecular target: T7, rHuman IGF-1 sR, CF (R&D Systems …); experiment: as above
[17] = molecular target: T8, rHuman ErbB2/Fc Chimera, CF (R&D …); experiment: as above
[18] = molecular target: T9, rHuman EGF R/Fc Chimera, CF (R&D …); experiment: as above
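Further: blank spot per well as comparator with Hit at signal to blank ratio of 4 or more.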

B1: Fab VH1-46_IGHD6-6*01_IGHJ1*01_S102A_S103P_S104F & L6_IGKJ1*01 (Fab, V domains shown)
VH: QVQLVQSGAEVKKPGASVKVSCKASGYTFTSYYMHWVRQAPGQGLEWMGIINPSGGSTSYAQKFQGRVTMTRDTSTSTVYMELSSLRSEDTAVYYCAREEYAPFSAEYFQHWGQGTLVTVSS
VL: not shown
notes: Fab made in E. coli; The heavy chain also carries the CH1 with Flag and His tags of Plasmid A, and the light chain the kappa constant region of Plasmid C
[1]
  ECL signal: 1580
[2]
  ECL signal: 2500
[3]
  ECL signal: 1310
[4]
  ECL signal: 73300
[5]
  ECL signal: 1660
[6]
  ECL signal: 1620
[7]
  ECL signal: 1180
[8]
  ECL signal: 1290
[9]
  ECL signal: 2430
[10]
  ECL signal: 691
[11]
  ECL signal: 894
[12]
  ECL signal: 887
[13]
  ECL signal: 345000
[14]
  ECL signal: 1110
[15]
  ECL signal: 1140
[16]
  ECL signal: 720
[17]
  ECL signal: 842
[18]
  ECL signal: 809
